Source: patent US20240415884A1 (UNIVERSITY OF PITTSBURGH OF THE COMMONWEALTH SYSTEM OF …, published 2024)
Positions count from the first letter of the chain named. Blank lines part the entries; values can stand above or below the binder they belong to.

Tests used:
[1] = biological target: T1, human CD276 polypeptide (antigen of the ELISA of Clones #1-#8) (human, UniProt Q5ZPR3 29-461, limits assumed); experiment: ELISA on a human CD276 polypeptide
T1 construct: For panning it was fused at its C-terminus to human IgG1 Fc (CD276-Fc); also called B7-H3
T1 sequence: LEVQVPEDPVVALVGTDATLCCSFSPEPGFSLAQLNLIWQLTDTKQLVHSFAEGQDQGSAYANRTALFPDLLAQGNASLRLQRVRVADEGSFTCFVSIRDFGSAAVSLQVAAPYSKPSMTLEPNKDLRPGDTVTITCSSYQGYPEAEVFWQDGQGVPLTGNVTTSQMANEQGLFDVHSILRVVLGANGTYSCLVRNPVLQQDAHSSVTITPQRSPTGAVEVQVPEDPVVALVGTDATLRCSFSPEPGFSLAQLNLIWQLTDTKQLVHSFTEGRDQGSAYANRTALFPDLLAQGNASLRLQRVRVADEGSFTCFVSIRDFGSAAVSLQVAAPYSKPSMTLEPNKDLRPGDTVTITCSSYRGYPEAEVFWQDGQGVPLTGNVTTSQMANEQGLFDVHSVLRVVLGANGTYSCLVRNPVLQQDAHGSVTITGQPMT

[2] = biological target: T2, recombinant CD276 polypeptide that included four Ig-like extracellular domains (human, UniProt Q5ZPR3 29-466); experiment: ELISA on recombinant CD276 polypeptide with four Ig-like extracellular domains (FIG. 28)
T2 construct: extracellular domain; also called 4Ig CD276 polypeptide; a CD276 polypeptide
T2 sequence (looked up): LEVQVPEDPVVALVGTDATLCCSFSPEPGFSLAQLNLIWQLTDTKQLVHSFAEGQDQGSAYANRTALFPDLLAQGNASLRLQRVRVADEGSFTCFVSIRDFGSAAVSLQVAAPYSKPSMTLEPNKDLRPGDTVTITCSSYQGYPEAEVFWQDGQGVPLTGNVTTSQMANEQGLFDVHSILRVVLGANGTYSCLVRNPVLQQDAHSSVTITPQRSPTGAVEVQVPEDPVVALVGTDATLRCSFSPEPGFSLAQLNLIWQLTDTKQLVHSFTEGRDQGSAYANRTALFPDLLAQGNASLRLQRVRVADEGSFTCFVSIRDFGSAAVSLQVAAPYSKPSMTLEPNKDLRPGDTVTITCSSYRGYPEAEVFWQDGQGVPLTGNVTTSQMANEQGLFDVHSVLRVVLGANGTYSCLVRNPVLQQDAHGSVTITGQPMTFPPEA
Method: Clones #9 and #10, two VH binders, bound to a CD276 polypeptide with EC₅₀ values of 8.1 and 1.2 nM, respectively, as tested by ELISA. […] The molecular weight of these two clones were validated by mass spectrum. The binding kinetics of clone #9 and #10 to the 4Ig CD276 polypeptide with both his tag and Fc tag were measured by surface plasmon resonance. […] See, FIGS. 28-32.

[3] = biological target: T3, 4Ig CD276 polypeptide with Fc tag (human, UniProt Q5ZPR3 29-466); experiment: SPR, panel CD276-Fc; sensorgrams with fits, response up to about 11 RU; which partner is on the chip is not stated
T3 construct: extracellular domain; SPR antigen; also called 4Ig CD276-Fc; not shown: Fc tag
T3 sequence (looked up): T2 sequence (looked up)

[4] = biological target: T4, 4Ig CD276 polypeptide with his tag (human, UniProt Q5ZPR3 29-466); experiment: SPR, panel CD276-His; sensorgrams with fits, response up to about 12 RU; which partner is on the chip is not stated
T4 construct: extracellular domain; SPR antigen; also called 4Ig CD276-his; not shown: his tag
T4 sequence (looked up): T2 sequence (looked up)

[5] = biological target: T3, 4Ig CD276 polypeptide with Fc tag; experiment: SPR, panel CD276-Fc; sensorgrams with fits, response up to about 15 RU; which partner is on the chip is not stated
[6] = biological target: T4, 4Ig CD276 polypeptide with his tag; experiment: SPR, panel CD276-His; sensorgrams with fits, response up to about 18 RU; which partner is on the chip is not stated

- EC50 [1]: 34 nM
B1: Clone #1 (ab1) (Fab, V domains shown)
VH: QVQLVESGGGLVKPGGSLRLSCAASGFTFSDYYMSWIRQAPGKGLEWVSYISSSGSTIYYADSVKGRFTISRDNAKNSLYLQMNSLRAEDTAVYYCARGINFGLDIWGQGTTVTVSS
VL: DIQMTQSPSSLSASVGDRVTITCRASQSISSYLNWYQQKPGKAPKLLIYAASSLQSGVPSRFSGSGSGTDFTLTISSLQPEDVGVYYCMQALQTLFGQGTKVDIKR
notes: also called #1 (Fab)

- EC50 [2]: 8.1 nM
- Kd [3]: 5.3 nM
- Kd [4]: 6 nM
B2: Clone #9 (ab9) (VHH)
VHH: EVQLVESGGGVVQPGRSLRLSCAASGFTFSSYAMHWVRQAPGQGLEWVSTIGPRGINTHYADSVKGRFTISRDNSKNTLYLQMNSLRAEDTATYYCARDRVGYNSYGMDVWGQGTMVTVSS
notes: also called A10; #9 (VH domain)

- EC50 [1]: 0.9 nM
B3: Clone #4 (ab4) (VHH)
VHH: EVQLVESGGGLVQPGGSLRLSCAASWFDFQDYDMSWVRQAPGKGLEWIGEINHSGSTNYNPSLKSRVTISRDNSKNTLYLQMNSLRAEDTAVYYCAKIGYWGQGTLVTVSS
notes: kind VHH is used for single domain; also called #4 (VH domain)

- EC50 [1]: 0.6 nM
B4: Clone #7 (ab7) (VHH)
VHH: B3 VHH with W26G, D28T, Q30S, D31S, D33A, K43Q, A96V, K97H, G99D, T108A
notes: also called #7 (VH domain)

- EC50 [1]: 1.2 nM
B5: Clone #5 (ab5) (VHH)
VHH: EVQLVESGGGLVQPGGSLRLSCAASPFPFTIYEMSWVRQASGKALEWIGYINHSGSTNYNPSLKSRVTISRDNSKNTLYLQMNSLRAEDTAMYYCAILAPDYWGQGTLVTVSS
notes: also called #5 (VH domain)

- Kd [5]: 5.2 nM
- Kd [6]: 7.83 nM
- EC50 [2]: 1.2 nM
B6: Clone #10 (ab10) (VHH)
VHH: EVQLVESGGGVVQPGRSLRLSCAASGFTFSSYAMHWVRQAPGKGLEWIGEIYHGGSTDYNPSLKSRVTISRDDSTNTLYLQMNSLRAEDTAVYYCTRGGKRLLSVYGVDVWGQGTMVTVSS
notes: also called C7; #10 (VH domain)

- EC50 [1]: 4 nM
B7: Clone #8 (ab8) (Fab, V domains shown)
VH: QVQLVESGGGLVKPGGSLRLSCAASGFTFSDYYMSWIRQAPGKGLEWVSYISSSGSTIYYADSVKGRFTISRDNAKNSLYLQMNSLRAEDTAVYYCARDAPTSGWKWFAPDYWGQGALVTVSS
VL: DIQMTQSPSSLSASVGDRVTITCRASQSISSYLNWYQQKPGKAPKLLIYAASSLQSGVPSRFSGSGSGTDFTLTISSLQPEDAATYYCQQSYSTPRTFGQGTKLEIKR
notes: also called #8 (Fab)

- EC50 [1]: 46 nM
B8: Clone #2 (ab2) (Fab, V domains shown)
VH: QVQLVESGGGLVKPGGSLRLSCAASGFTFSDYYMSWIRQAPGKGLEWVSYISSSGSTIYYADSVKGRFTISRDNAKNSLYLQMNSLRAEDTAVYYCARRGAMGHHDGFDMWGLGTMVTVSS
VL: DIQMTQSPSSLSASVGDRVTITCRASQSISSYLNWYQQKPGKAPKLLIYAASSLQSGVPSRFSGSGSGTDFTLTISSLQPEDVAVYYCQQRSNWPLYTFGQGTKLEIKR
notes: also called #2 (Fab)

- EC50 [1]: 26 nM
B9: Clone #3 (ab3) (Fab, V domains shown)
VH: QVQLVESGGGLVKPGGSLRLSCAASGFTFSDYYMSWIRQAPGKGLEWVSYISSSGSTIYYADSVKGRFTISRDNAKNSLYLQMNSLRAEDTAVYYCARRGGSYYARGAFDIWGQGTMVTVSS
VL: DIQMTQSPSSLSASVGDRVTITCRASQSISSYLNWYQQKPGKAPKLLIYAASSLQSGVPSRFSGSGSGTDFTLTISSLQPEDAATYYCQHRSDWPPKFTFGPGTKVDIKR
notes: also called #3 (Fab)

- EC50 [1]: 10 nM
B10: Clone #6 (ab6) (VHH)
VHH: EVQLVESGGGLVQPGGSLRLSCAASGSPFPHYEMSWVRQAPGKGLEWMGWINTNTGKSTYAQGFTGRFTISRDNSKNTLYLQMNSLRAEDTAVYYCARSGYGYYFDYWGQGTLVTVSS
notes: also called #6 (VH domain)
